Results as given in patent publication US20230256092A1, “COMBINED USE OF ANTI-CCR8 ANTIBODY AND CHEMOTHERAPEUTIC AGENT” (Shionogi & Co., Ltd., priority 2020, published 2023).
Where a chain is given by its changes, count along the chain named. Names may count otherwise.

B1: h10A11 (IGKV4-1/IGHV3-73 T31A) (antibody, name in Kabat numbering, V domains shown)
VH: EVQLVESGGGLVQPGGSLKLSCAASGFAFNAYALYWVRQASGKGLEWVGRIRSKSNNYATYYADSVKDRFTISRDDSKNTAYLQMNSLKTEDTAVYYCTRARFYYSDYGYAMDYWGQGTLVTVSS
VL: DIVMTQSPDSLAVSLGERATINCRSSKSLLHSNGNTYLYWYQQKPGQPPKLLIYRMSNLASGVPDRFSGSGSGTDFTLTISSLQAEDVAVYYCMQHLEYPLTFGQGTKLEIKR
B2: h10A11 (IGKV4-1/IGHV3-73 Y32F) (antibody, name in Kabat numbering, V domains shown)
VH: B1 VH with A31T, Y32F
VL: B1 VL
B3: h10A11 (IGKV4-1/IGHV3-73 A33V) (antibody, name in Kabat numbering, V domains shown)
VH: B1 VH with A31T, A33V
VL: B1 VL
B4: h10A11 (IGKV4-1/IGHV3-73 L34I) (antibody, name in Kabat numbering, V domains shown)
VH: B1 VH with A31T, L34I
VL: B1 VL
B5: h10A11 (IGKV4-1/IGHV3-73 Y35F) (antibody, name in Kabat numbering, V domains shown)
VH: B1 VH with A31T, Y35F
VL: B1 VL
B6: h10A11 (IGKV4-1/IGHV3-73 R50K) (antibody, name in Kabat numbering, V domains shown)
VH: B1 VH with A31T, R50K
VL: B1 VL
B7: h10A11 (IGKV4-1/IGHV3-73 I51L) (antibody, name in Kabat numbering, V domains shown)
VH: B1 VH with A31T, I51L
VL: B1 VL
B8: h10A11 (IGKV4-1/IGHV3-73 R52K) (antibody, name in Kabat numbering, V domains shown)
VH: B1 VH with A31T, R52K
VL: B1 VL
B9: h10A11 (IGKV4-1/IGHV3-73 S52aT) (antibody, name in Kabat numbering, V domains shown)
VH: B1 VH with A31T, S53T
VL: B1 VL
B10: h10A11 (IGKV4-1/IGHV3-73 K52bR) (antibody, name in Kabat numbering, V domains shown)
VH: B1 VH with A31T, K54R
VL: B1 VL
B11: h10A11 (IGKV4-1/IGHV3-73 S52cT) (antibody, name in Kabat numbering, V domains shown)
VH: B1 VH with A31T, S55T
VL: B1 VL
B12: h10A11 (IGKV4-1/IGHV3-73 N53Q) (antibody, name in Kabat numbering, V domains shown)
VH: B1 VH with A31T, N56Q
VL: B1 VL
B13: h10A11 (IGKV4-1/IGHV3-73 Y55F) (antibody, name in Kabat numbering, V domains shown)
VH: B1 VH with A31T, Y58F
VL: B1 VL
B14: h10A11 (IGKV4-1/IGHV3-73 A56V) (antibody, name in Kabat numbering, V domains shown)
VH: B1 VH with A31T, A59V
VL: B1 VL
B15: h10A11 (IGKV4-1/IGHV3-73 T57S) (antibody, name in Kabat numbering, V domains shown)
VH: B1 VH with A31T, T60S
VL: B1 VL
B16: h10A11 (IGKV4-1/IGHV3-73 Y58F) (antibody, name in Kabat numbering, V domains shown)
VH: B1 VH with A31T, Y61F
VL: B1 VL
B17: h10A11 (IGKV4-1/IGHV3-73 Y59F) (antibody, name in Kabat numbering, V domains shown)
VH: B1 VH with A31T, Y62F
VL: B1 VL
B18: h10A11 (IGKV4-1/IGHV3-73 A60V) (antibody, name in Kabat numbering, V domains shown)
VH: B1 VH with A31T, A63V
VL: B1 VL
B19: h10A11 (IGKV4-1/IGHV3-73 D61E) (antibody, name in Kabat numbering, V domains shown)
VH: B1 VH with A31T, D64E
VL: B1 VL
B20: h10A11 (IGKV4-1/IGHV3-73 S62T) (antibody, name in Kabat numbering, V domains shown)
VH: B1 VH with A31T, S65T
VL: B1 VL
B21: h10A11 (IGKV4-1/IGHV3-73 V63L) (antibody, name in Kabat numbering, V domains shown)
VH: B1 VH with A31T, V66L
VL: B1 VL
B22: h10A11 (IGKV4-1/IGHV3-73 K64R) (antibody, name in Kabat numbering, V domains shown)
VH: B1 VH with A31T, K67R
VL: B1 VL
B23: h10A11 (IGKV4-1/IGHV3-73 D65E) (antibody, name in Kabat numbering, V domains shown)
VH: B1 VH with A31T, D68E
VL: B1 VL
B24: h10A11 (IGKV4-1/IGHV3-73 R96K) (antibody, name in Kabat numbering, V domains shown)
VH: B1 VH with A31T, R102K
VL: B1 VL
B25: h10A11 (IGKV4-1/IGHV3-73 F97L) (antibody, name in Kabat numbering, V domains shown)
VH: B1 VH with A31T, F103L
VL: B1 VL
B26: h10A11 (IGKV4-1/IGHV3-73 Y98F) (antibody, name in Kabat numbering, V domains shown)
VH: B1 VH with A31T, Y104F
VL: B1 VL
B27: h10A11 (IGKV4-1/IGHV3-73 Y99F) (antibody, name in Kabat numbering, V domains shown)
VH: B1 VH with A31T, Y105F
VL: B1 VL
B28: h10A11 (IGKV4-1/IGHV3-73 S100T) (antibody, name in Kabat numbering, V domains shown)
VH: B1 VH with A31T, S106T
VL: B1 VL
B29: h10A11 (IGKV4-1/IGHV3-73 D100aE) (antibody, name in Kabat numbering, V domains shown)
VH: B1 VH with A31T, D107E
VL: B1 VL
B30: h10A11 (IGKV4-1/IGHV3-73 Y100bF) (antibody, name in Kabat numbering, V domains shown)
VH: B1 VH with A31T, Y108F
VL: B1 VL
B31: h10A11 (IGKV4-1/IGHV3-73 G100cA) (antibody, name in Kabat numbering, V domains shown)
VH: B1 VH with A31T, G109A
VL: B1 VL
B32: h10A11 (IGKV4-1/IGHV3-73 Y100dF) (antibody, name in Kabat numbering, V domains shown)
VH: B1 VH with A31T, Y110F
VL: B1 VL
B33: h10A11 (IGKV4-1/IGHV3-73 A100eV) (antibody, name in Kabat numbering, V domains shown)
VH: B1 VH with A31T, A111V
VL: B1 VL
B34: h10A11 (IGKV4-1/IGHV3-73 M100fL) (antibody, name in Kabat numbering, V domains shown)
VH: B1 VH with A31T, M112L
VL: B1 VL
B35: h10A11 (IGKV4-1/IGHV3-73 D101E) (antibody, name in Kabat numbering, V domains shown)
VH: B1 VH with A31T, D113E
VL: B1 VL
B36: h10A11 (IGKV4-1/IGHV3-73 Y102F) (antibody, name in Kabat numbering, V domains shown)
VH: B1 VH with A31T, Y114F
VL: B1 VL

Target: human CCR8 (human) (UniProt P51685)
Assay: cell-based or functional assay

Q: Which IC50 ratio (WT IC50/mutant IC50) does the source give for B1 here?
A: 0.17

Q: How did the IC50 ratio (WT IC50/mutant IC50) turn out when B2 was run?
A: 0.44

Q: Which IC50 (n.d. = IC50 of the mutant is 10 nM or more) does the source give for B3 here?
A: > 10 nM

Q: B4 was tested. Which IC50 ratio (WT IC50/mutant IC50) did it give?
A: 0.43

Q: How did the IC50 (n.d. = IC50 of the mutant is 10 nM or more) turn out when B5 was run?
A: > 10 nM

Q: Which IC50 ratio (WT IC50/mutant IC50) does the source give for B6 here?
A: 0.12

Q: How did the IC50 ratio (WT IC50/mutant IC50) turn out when B7 was run?
A: 0.22

Q: Which IC50 (n.d. = IC50 of the mutant is 10 nM or more) does the source give for B8 here?
A: > 10 nM

Q: For B9, which IC50 ratio (WT IC50/mutant IC50) is on record?
A: 0.22

Q: How did the IC50 ratio (WT IC50/mutant IC50) turn out when B10 was run?
A: 0.47

Q: With B11 as the binder, how does the IC50 ratio (WT IC50/mutant IC50) read?
A: 0.53

Q: B12 was tested. Which IC50 ratio (WT IC50/mutant IC50) did it give?
A: 0.03

Q: With B13 as the binder, how does the IC50 ratio (WT IC50/mutant IC50) read?
A: 0.47

Q: B14 was tested. Which IC50 ratio (WT IC50/mutant IC50) did it give?
A: 0.55

Q: Which IC50 ratio (WT IC50/mutant IC50) does the source give for B15 here?
A: 0.49

Q: Which IC50 ratio (WT IC50/mutant IC50) does the source give for B16 here?
A: 0.5

Q: For B17, which IC50 ratio (WT IC50/mutant IC50) is on record?
A: 0.03

Q: For B18, which IC50 ratio (WT IC50/mutant IC50) is on record?
A: 0.67

Q: B19 was tested. Which IC50 ratio (WT IC50/mutant IC50) did it give?
A: 0.25

Q: How did the IC50 ratio (WT IC50/mutant IC50) turn out when B20 was run?
A: 1.6

Q: For B21, which IC50 ratio (WT IC50/mutant IC50) is on record?
A: 0.56

Q: B22 was tested. Which IC50 ratio (WT IC50/mutant IC50) did it give?
A: 0.54

Q: How did the IC50 ratio (WT IC50/mutant IC50) turn out when B23 was run?
A: 1.3

Q: For B24, which IC50 (n.d. = IC50 of the mutant is 10 nM or more) is on record?
A: > 10 nM

Q: With B25 as the binder, how does the IC50 (n.d. = IC50 of the mutant is 10 nM or more) read?
A: > 10 nM

Q: With B26 as the binder, how does the IC50 ratio (WT IC50/mutant IC50) read?
A: 0.07

Q: How did the IC50 ratio (WT IC50/mutant IC50) turn out when B27 was run?
A: 0.8

Q: Which IC50 ratio (WT IC50/mutant IC50) does the source give for B28 here?
A: 0.64

Q: With B29 as the binder, how does the IC50 ratio (WT IC50/mutant IC50) read?
A: 0.3

Q: Which IC50 ratio (WT IC50/mutant IC50) does the source give for B30 here?
A: 0.75

Q: How did the IC50 ratio (WT IC50/mutant IC50) turn out when B31 was run?
A: 0.07

Q: How did the IC50 ratio (WT IC50/mutant IC50) turn out when B32 was run?
A: 0.55

Q: For B33, which IC50 ratio (WT IC50/mutant IC50) is on record?
A: 0.49

Q: With B34 as the binder, how does the IC50 ratio (WT IC50/mutant IC50) read?
A: 0.72

Q: Which IC50 (n.d. = IC50 of the mutant is 10 nM or more) does the source give for B35 here?
A: > 10 nM

Q: How did the IC50 ratio (WT IC50/mutant IC50) turn out when B36 was run?
A: 0.99
